Target: T1, Recombinant human IgG1 Fc (hFc) (human, UniProt P01857-1 100-330 = IgG part)
T1 construct: domain: Fc; Bought reagent; also called Recombinant Human IgG Fc
Assay: sandwich ELISA: hEDAR-mFc coated, anti-human IgG (Fc) CH2-HRP detection
Description: For validation, ELISA plates (96-well Microtiter Plates, Nunc 96F Maxisorp (Thermo Fisher, Pittsburgh, Pa.)) were coated with 1 μg/mL hEDARmFc coating solution. For the binding step, standards, QCs, Blank (assay buffer alone), and other required samples were added to the appropriate wells of an assay plate. Plates were incubated for approximately 120 minutes and then washed. For the detection step, the detection reagent was added to each required well and the plate was incubated for approximately 60 minutes and then washed. For the substrate step, Ultra TMB (1-Step Ultra TMB-ELISA Substrate (Thermo Scientific, Pittsburgh, Pa.)) was added to each well and the plate was incubated for approximately 20 to 30 minutes. Color development was monitored at 650 nm so that development could be discontinued when the OD of the 250 ng/mL standard was between 1.3 and 1.4. To stop the color reaction, 2N sulfuric acid was added to each well. The OD at 450 nm was determined with the correction wavelength set at 540 nm.

binding result: no binding (tested: 100 ng/mL)
B1: hEDAR-mFc (Fc fusion, human, UniProt Q9UNE0 27-183, looked up)
chain: EYSNCGENEYYNQTTGLCQECPPCGPGEEPYLSCGYGTKDEDYGCVPCPAEKFSKGGYQICRRHKDCEGFFRATVLTPGDMENDAECGPCLPGYYMLENRPRNIYGMVCYSCLLAPPNTKECVGATSGASANFPGTSGSSTLSPFQHAHKELSGQGH
notes: Capture reagent from Edimer Pharmaceuticals, coated at 1 µg/mL; also called capture reagent; not shown: mouse Fc (mFc)
